According to a protein production outcome set (Wang et al. 2014):

Assay: label from the status in PepcDB records

**Q.** Which protein production does the source give for “MNTEAEQQLLHHARNGNAEEVRKLLEAMARAEVVADIDCKGRSKSNLGWTPLHLACYFGHKQVVQDLLKAGAKVNMLNDMGDTPLHRAAFTGRKELVMLLLEYNADTTVVNGSGQTAKEATHDKEIRQMLEAVERTQQRKLEELLLGAAREGRTAEVSALLSRPNPPDVNCSDQLGNTPLHCAAYRAHKQCVLKLLRSGADPSLKNKNDQKPLDLAHGTEMKHILVGNKVVHKALKRFEGPLWKSSRFFGWKLFWVVLEHGVLSWYRKQPDAVHNSYRQGCKHLTQAVCTVKPTDGCLFSVRCFDDTVHGFRVPKNSLQQSREKWLEAIEEHSAYSTHYCSQDQVTDDEEEDVASAMDLKESLARAQTCQQRLDREIYNFLKMIKECDVAKDMLPSFLQKADVLSEASRETCVALSDCLNLFTKQEGVRNFKLEQEQEKNKILSEALETLATEHHELERSLVEGSPPVSILSEDEFYDALSGSESEGSLTCLEAVTARAFEENEVPANSGKHRMSEGKDCGGGDALSNGIKKHRTSLPSPMFSRNDFSIWSILRKCIGMELSKITMPVIFNEPLSFLQRLTEYMEHTYLIHKASSFSDPVERMQCVAAFAVSAVASQWERTGKPFNPLLGETYELVRDDLGFRLISEQVSHHPPISAFHAEGLNNDFIFHGSIYPKLKFWGKSVEAEPKGTITLELLEHNEAYTWTNPTCCVHNIIVGKLWIEQYGNVEIINHKTGDKCVLNFKPCGLFGKELHKVEGYIQDKSKKKLCALYGKWTECLYSVDPATFDAYKKNDKKNTEEKKTSKQASTSEESDEMPVPDSESVFVIPGSALLWRIAPRPPNSAQMYNFTSFAMVLNEVDKEMETVIPKTDCRLRPDIRAMENGEIDQASEEKKRLEEKQRAARKNRSKSEEDWKTRWFHQGPNPYSGAQDWIYSGSYWDRNYFNLPDIY” here?
**A.** The protein production was “failed”.

**Q.** With “MNTFGIFLTISAYTFFSWAYSKKKTPILNPVLLSILLIALILKVGNISYEKYMESARFLSFLLGPAVVSLAIPLYKQINIVKEYKKEIATGIITGGTTAILSAVYILKAFNSPEILQRTIAPKSVTTAIAMGVSEKIGGIPELTAVLVILTGILGNALAPELLDFFKIKDRVARGLATGVSSHGLGTARIILEDELSGAVSGLAMALNGVYTAFLLPLIIELIV” as the sequence, how does the protein production read?
**A.** Its protein production is “failed”.

**Q.** For “MNTKNLVFVALFSSIMGVLGLIPPIALSITPVPITLQSLGVMLAGGLLGSRLGALSQLIFLLIVGVGAPLLAGGRGGLGVFVGPSAGYLLGYIIGAFVIGYLIERLREVSIIKVLCINIIGGIFVVYVFGITVQAFLMDVSVWETMKVSAVFLPGDCIKAIIAAVLVTKLHRSLKHIITPALKNGKYTNAG”, which protein production is on record?
**A.** The protein production was “failed”.

**Q.** With “MNTLFFSRQQYWLALIFGCLLVFLAASLGHGQWLDYAQRVATLDEPLSRLRWIVGDISEVAFYKHELPALGLLLGACLAHWAQLRGYRWQGFAICYGSGLWPWVFTSSLLGLLLSHVLWGWTLASGTWQPTFVAFVSLPAAMVLLFGAGWRVTITGALLGALLVTPAGLLMVNYLCYPLQLPVVVGNVSGMAVASVVAFILCKRFPSWVRQCGEPTVVAPVVNQPDYGVVWTLRRVLADFSEAPFFGNELASLGLLLGVLLAYLLSPAALSYGSMLVMQMVAGQALASLVGVVLWRGQWKARGWYPTYIPIVSIVPAAVLTHGGSWQVVVASAVLGALVAPPLAVAITQRLPAYVHGYIGNVVSMAICTLGIVPVVGLLVGGEA” as the sequence, how does the protein production read?
**A.** Its protein production is “failed”.

**Q.** With “MNTLIIAKKEIVSAFRDKRTFLFMLAFPIVLIMILGTALTNAFDQQAAVGEVRVLYKDNSDGAFSQGFKTFVKEAKTSGVHFKKVLSDMDEKQEIKQGNYDAYLEIENSGIKLYQMDKNSMKNSIIQGMLTAFANRYNAAAEIIKAAPEQAGAVLGDAPGDNYIKETSLSSDRKPSSMDYYAVAMTTLIALYSALSASYLIRGERLRKTADRLIAAPVHKGEIFAGKLIGNLVTNGLCIFAVVAVSKYVFKAYWGEHLGLVAAVLFSIVLFAVCLGLGVSYLTRTGEAAVAIINVLIPLVAFFGGAYFPVDDAEGVLALITDLSPLAWTNEAIMNIIFADDLAAGLPAILLNIGLSLLFLLIAVVSLQRREGL” as the sequence, how does the protein production read?
**A.** Its protein production is “failed”.

**Q.** For “MNTLKKAFEILDFIVKNPGDVSVSEIAEKFNMSVSNAYKYMVVLEEKGFVLRKKDKRYVPGYKLIEYGSFVLRRFNIRDIAHDHLVDIMKRTGETVHLILKDGFEGVYIDKVEGEQSIPMVSRLGMKVDLYSTASGKSILAFVPEKELKEYLKIVELKPKTPNTITNPRVLKRELEKIRKRGYAVDNEENEIGIMCVGVPIFDHNGYPVAGVSISGVARKFTEEKIEEYSDVLKEKAEEISRKLGY”, which protein production is on record?
**A.** The protein production was “not failed”.

**Q.** Which protein production does the source give for “MNTLRTAMLLAAMTALFMGVGFLIGGSGGMMIALLIAAGTNLFSYWNADKMVLSMNRAVEVDEKNAPEYYAIVQALAKQAGLPMPRTYLIDNPQPNAFATGRNPQNAAVAASTGLLQRLTHEEVAAVMAHELAHVQHRDTLTMTIVATFAGAISMLGNFAFFLGGNRDNNPFGFVGVLAAMIVAPFAAMIVQMAVSRTREYEADRRGAEICGHPLWLASALDKIARGAERIPNPDAERNPAMAHLFIINPLHGERMDNLFSTHPSTDNRIAALQEMAQQMAGGTQAAPRPTPRQAGEQQPSGPWGQAPQAEQPAEPERPKANPWGRNPTGPKGRWS” here?
**A.** The protein production was “failed”.

**Q.** Which protein production does the source give for “MNTRPFYFGLIFIAIIAILANYLGNTDFSHHYHISALIIAILLGMAIGNTIYPQFSTQVEKGVLFAKGALLRTGIVLYGFRLTFGDIADVGLNAVVTDAIMLISTFFFTALLGIRYLKMDKQLVYLTGAGCSICGAAAVMAAEPVTKAESHKVSVAIAVVVIFGTLAIFTYPLFYTWSQHLINAHQFGIYVGSSVHEVAQVYAIGENIDPIVANTAVISKMIRVMMLAPFLLMLSWLLTRSNGVSENTSHKITIPWFAVLFIGVAIFNSFDLLPKELVKLFVEIDSFLLISSMAALGLTTQASAIKKAGLKPFVLGILTYLWLVVGGFLVNYGISKLI” here?
**A.** The protein production was “failed”.

**Q.** For “MNTVCTACMATNRLPEERIDDGAKCGRCGHSLFDGEVINATAETLDKLLQDDLPMVIDFWAPWCGPCRSFAPIFAETAAERAGKVRFVKVNTEAEPALSTRFRIRSIPTIMLYRNGKMIDMLNGAVPKAPFDNWLDEQLSRDPNS”, which protein production is on record?
**A.** Its protein production is “not failed”.

**Q.** For “MNVDVLIGEILTLSMMAFALGMDAFSVGLGMGMAKLKRNQVFQIGVIIGLFHVIMPLGGMIAGQFLSGALGALAGYIGGALLLVLGIQMIVASFNKSGEQIISPHGFGLFVFAVGVSLDSFSVGLSLGLYGTKPILTIFLFGLFSMVLTWAGLLLGKKVQTWLGAYSEALGGAILLSFGLKLLLPI”, which protein production is on record?
**A.** The protein production was “failed”.

**Q.** For “MNVFARSSVLAAEMIDVFDRTHTEKELVFQSKELCRDFIHSRITREGLSWSKVELDLPEPRGVLVDVSVVLLKLGDELECMRPYVYRNIAKQLNISVSVEAVVSDAFLSVATEVIAMGITWGKVVAIYAVAAGLAVDCVRLGHPVMVHTIVDSLGEFVRRSLVPWLKKRGGWVDILKCVVNMDSRAHVHWLSTAVLTWREFIKTMYVYLTK”, which protein production is on record?
**A.** The protein production was “failed”.

**Q.** For “MNVINETANVLKLETGSVTSAKGFSAVGIHTGVKRKRKDLGAIVCEVPASSAAVYTLNKVQAAPLKVTQESIAVEGKLQAMIVNSGIANACTGKRGLDDAYTMRAVGAETFHIPEHYVAVTSTGVIGEFLPMDVITNGIRQLKPEATIEGAHAFNEAILTTDTVEKHTCYQTIVNGKTVTVGGVAKGSGMIHPNMATMLSFVTTDANIDHGHLQGALSAITNETFNRITVDGDTSTNDMVVVMASGLAENEALTPEHPDWANFYKALQLACEDLAKQIARDGEGATKLIEVEVTGAANDQEAGMVAKQIVGSDLVKTAIYGADANWGRIICAIGYSGCEVNQETIDIAIGPIVTLKQSEPTGFSEEEATAYLKEADPVKISVNLHIGNGTGKAWGCDLTYDYVRINAGYRT”, which protein production is on record?
**A.** The protein production was “not failed”.

**Q.** With “MNVIYPLAVPKGRRLSCEVCEAPAERMCTACTVTYYCGPVHQKADWDSIHAKICQLLIPLRTTMPFYNSEEERQHGLQQLQRRQKHLIEFCYTVAQKYLFEGRHEDAVPAALHSLRFRMNVHGLSSVELVPAYLLLAEASLGLGRIVQAEEYLSQAQWTVLKSTDCSNATHSLLHRNLGLLYIAKKNLDEARYHLANDIYFASCAYGTEDIRTSGGYFHLANIFYGLKKMELADTLYTKVSEIWYTYLNSHYQALLEARSQQTDLLGKQFVNDTGLDEAQEAEAIRILTSTLIIQESTSTKAPQKSILILKTLSILYYLMLECSKAKEYAMKALSLAETYVSEEEQRFIQELLSVISAEEKQP” as the sequence, how does the protein production read?
**A.** The protein production was “failed”.

**Q.** With “MNVLRRFHAWRNQAPLWWWVGLRMSALAVVTMMVIAFGMWCYFNLRYSLILSNVPAEPRAEISQLIEQPRANQARLWELFQRYYDIENFLPGLANPDWWMLGAMMTISVPVILFCGLLASRPLSRQFSQVAFAAHRVSDGDFGARAQVVRGAPDELTALADDFNTMSGRLQQYERELRDSSAMLAHELRTPLNAAMGRVQGMLDDVFPREPEQLRLVHRQLEQINRLIGDLHLVSLARAGQLVLEPESVELRELVAERIEWAGPALREAQMTIHYPTHPALRLHADRHRLGQVLSILIDNALRYAAAGKLLEIEVRRDGTGVQLTVGDRGPGVAPAQLPHLLDRFWRADSSRARHSGGSGLGLAIASAICQAHDGQLVVSNRPGGGLLASVQLPLGR” as the sequence, how does the protein production read?
**A.** Its protein production is “failed”.

**Q.** Which protein production does the source give for “MNVLSLGSSSGVVWGRVPITAPAGAATGVTSRADAHSQMRRYAQTGPTAKLSSAPMTTMWGAPLHRRWRGSRLRDPRQAKFLTLASLKWVLANRAYTPWYLVRYWRLLRFKLANPHIITRGMVFLGKGVEIHATPELAQLEIGRWVHIGDKNTIRAHEGSLRFGDKVVLGRDNVINTYLDIEIGDSVLMADWCYICDFDHRMDDITLPIKDQGIIKSPVRIGPDTWIGVKVSVLRGTTIGRGCVLGSHAVVRGAIPDYSIAVGAPAKVVKNRQLSWEASAAQRAELAAALADIERKKAAR” here?
**A.** The protein production was “failed”.

**Q.** Which protein production does the source give for “MNVPILPTISTSCIVISAILVAIGWALIWKRQVHKHKNIMLWAAFFALTFFIIYAARTIFIGNTAFGGPSSIKVYYTIFLVFHIILATVGGVLGLIQIILAFKDKLHIHRKIGPWASIIWFFTAITGVAVYVLLYVLYPGGETTSLLKATLGL” here?
**A.** Its protein production is “failed”.

**Q.** Which protein production does the source give for “MNWSIPNILTVLRLLAAPGVAVMFLYFHRPWADWFALTLFILAAVTDFFDGYLARLWKQESKFGAMLDPIADKAMVVIALVIITGYSGMNPWLILPVTLILFREVFVSGLREFLGAKASLLKVTKLAKWKTTAQMVAIAILFLGTGLEHLEGIARQGMTWEQYARAVSAGEADPIRSCGMHGCSSYATWLGLALIWIAAALTFITGWDYFRKALPYLKDEK” here?
**A.** Its protein production is “not failed”.

**Q.** For “MNYAFVVQARLGSTRLPGKILKPFYGNQSILDLMVHKLSAISNIPVIIATTNSVINEPIEKKALALGVKCFRGEENDVLKRFIDVAEYFDIQGIFRICSDNPFLDVHAARQLVEIAMKSCNDYISFDIDGTPSIKTHFGFWGEFVTLDALKRVIGFTDDLLYREHVTNYIYSHPELFNIQWISGSPVVSKHHNIRLTIDTLEDFSVAQRIYRDLQEKRVEISIEVIVDYVRRHAEYIQLMKQQIKKNSKLEHHHHHH”, which protein production is on record?
**A.** The protein production was “not failed”.

**Q.** For “MNYDDPKKKVGRNIKRLRLKAGIKSQAALAELCGWKSQSRVGNYEAGTRAVSAIDAETLAKVLNVTPAEILYGENNKDDDFVSMPSAQYSSGPYEEEDPFQLFKPKQELQNAEWHAGFELWDGDTPLRDDEVALPFYREVELAAGSGSTFVQENGGCKLRFAKSTLKKSRVEPSNAACVTVSGNSMLPVLRHGTTVGVDTSKKSIIDGEMYAIDHDGMLRVKMLYRTPGGGIRIKSYNNDEFPDEFIPPEKASDIKIIGWVFWWSVLNVWNN”, which protein production is on record?
**A.** The protein production was “failed”.
